# Assay results as given in IntAct's records for PubMed 25910212.
# B1: EF-hand domain-containing protein 1 (Homo sapiens), Q5JVL4 (parent)
# chain: MVSNPVHGLPFLPGTSFKDSTKTAFHRSQTLSYRNGYAIVRRPTVGIGGDRLQFNQLSQAELDELASKAPVLTYGQPKQAPPADFIPAHVAFDKKVLKFDAYFQEDVPMSTEEQYRIRQVNIYYYLEDDSMSVIEPVVENSGILQGKLIKRQRLAKNDRGDHYHWKDLNRGINITIYGKTFRVVDCDQFTQVFLESQGIELNPPEKMALDPYTELRKQPLRKYVTPSDFDQLKQFLTFDKQVLRFYAIWDDTDSMYGECRTYIIHYYLMDDTVEIREVHERNDGRDPFPLLMNRQRVPKVLVENAKNFPQCVLEISDQEVLEWYTAKDFIVGKSLTILGRTFFIYDCDPFTRRYYKEKFGITDLPRIDVSKREPPPVKQELPPYNGFGLVEDSAQNCFALIPKAPKKDVIKMLVNDNKVLRYLAVLESPIPEDKDRRFVFSYFLATDMISIFEPPVRNSGIIGGKYLGRTKVVKPYSTVDNPVYYGPSDFFIGAVIEVFGHRFIILDTDEYVLKYMESNAAQYSPEALASIQNHVRKREAPAPEAESKQTEKDPGVQELEALIDTIQKQLKDHSCKDNIREAFQIYDKEASGYVDRDMFFKICESLNVPVDDSLVKELIRMCSHGEGKINYYNFVRAFSN
# partner: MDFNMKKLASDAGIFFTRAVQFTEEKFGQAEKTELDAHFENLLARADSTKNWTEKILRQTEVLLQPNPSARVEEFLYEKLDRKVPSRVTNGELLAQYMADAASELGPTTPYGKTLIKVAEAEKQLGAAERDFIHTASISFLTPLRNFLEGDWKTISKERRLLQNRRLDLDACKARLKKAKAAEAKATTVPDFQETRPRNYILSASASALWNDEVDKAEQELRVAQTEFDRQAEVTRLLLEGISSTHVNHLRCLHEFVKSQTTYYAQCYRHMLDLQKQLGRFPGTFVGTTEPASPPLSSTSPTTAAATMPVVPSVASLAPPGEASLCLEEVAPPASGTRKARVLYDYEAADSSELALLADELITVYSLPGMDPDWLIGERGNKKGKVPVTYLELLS
# B2: Glial cell line-derived neurotrophic factor (Homo sapiens), P39905 (parent)
# chain: MKLWDVVAVCLVLLHTASAFPLPAGKRPPEAPAEDRSLGRRRAPFALSSDSNMPEDYPDQFDDVMDFIQATIKRLKRSPDKQMAVLPRRERNRQAAAANPENSRGKGRRGQRGKNRGCVLTAIHLNVTDLGLGYETKEELIFRYCSGSCDAAETTYDKILKNLSRNRRLVSDKVGQACCRPIAFDDDLSFLDDNLVYHILRKHSAKRCGCI
# B3: Plasma membrane ascorbate-dependent reductase CYBRD1 (Homo sapiens), Q53TN4 (parent)
# chain: MAMEGYWRFLALLGSALLVGFLSVIFALVWVLHYREGLGWDGSALEFNWHPVLMVTGFVFIQGIAIIVYRLPWTWKCSKLLMKSIHAGLNAVAAILAIISVVAVFENHNVNNIANMYSLHSWVGLIAVICYLLQLLSGFSVFLLPWAPLSLRAFLMPIHVYSGIVIFGTVIATALMGLTEKLIFSLRDPAYSTFPPEGVFVNTLGLLILVFGALIFWIVTRPQWKRPKEPNSTILHPNGGTEQGARGSMPAYSGNNMDKSDSELNSEVAARKRNLALDEAGQRSTM
# B4: Interleukin-1 alpha (Homo sapiens), P01583 (parent)
# chain: MAKVPDMFEDLKNCYSENEEDSSSIDHLSLNQKSFYHVSYGPLHEGCMDQSVSLSISETSKTSKLTFKESMVVVATNGKVLKKRRLSLSQSITDDDLEAIANDSEEEIIKPRSAPFSFLSNVKYNFMRIIKYEFILNDALNQSIIRANDQYLTAAALHNLDEAVKFDMGAYKSSKDDAKITVILRISKTQLYVTAQDEDQPVLLKEMPEIPKTITGSETNLLFFWETHGTKNYFTSVAHPNLFIATKQDYWVCLAGGPPSITDFQILENQA
# B5: U4/U6 small nuclear ribonucleoprotein Prp31 (Homo sapiens), Q8WWY3 (parent)
# chain: MSLADELLADLEEAAEEEEGGSYGEEEEEPAIEDVQEETQLDLSGDSVKTIAKLWDSKMFAEIMMKIEEYISKQAKASEVMGPVEAAPEYRVIVDANNLTVEIENELNIIHKFIRDKYSKRFPELESLVPNALDYIRTVKELGNSLDKCKNNENLQQILTNATIMVVSVTASTTQGQQLSEEELERLEEACDMALELNASKHRIYEYVESRMSFIAPNLSIIIGASTAAKIMGVAGGLTNLSKMPACNIMLLGAQRKTLSGFSSTSVLPHTGYIYHSDIVQSLPPDLRRKAARLVAAKCTLAARVDSFHESTEGKVGYELKDEIERKFDKWQEPPPVKQVKPLPAPLDGQRKKRGGRRYRKMKERLGLTEIRKQANRMSFGEIEEDAYQEDLGFSLGHLGKSGSGRVRQTQVNEATKARISKTLQRTLQKQSVVYGGKSTIRDRSSGTASSVAFTPLQGLEIVNPQAAEKKVAEANQKYFSSMAEFLKVKGEKSGLMST
# partner: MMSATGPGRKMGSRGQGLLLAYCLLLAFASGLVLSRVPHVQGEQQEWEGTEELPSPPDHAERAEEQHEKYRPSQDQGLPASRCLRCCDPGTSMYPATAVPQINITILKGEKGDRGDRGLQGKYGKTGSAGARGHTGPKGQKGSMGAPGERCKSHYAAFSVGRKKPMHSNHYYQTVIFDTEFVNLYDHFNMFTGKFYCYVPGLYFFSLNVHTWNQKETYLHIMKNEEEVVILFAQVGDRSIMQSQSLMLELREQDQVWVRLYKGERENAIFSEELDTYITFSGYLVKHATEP
# B6: DNA mismatch repair protein Mlh1 (Homo sapiens), P40692 (parent)
# chain: MSFVAGVIRRLDETVVNRIAAGEVIQRPANAIKEMIENCLDAKSTSIQVIVKEGGLKLIQIQDNGTGIRKEDLDIVCERFTTSKLQSFEDLASISTYGFRGEALASISHVAHVTITTKTADGKCAYRASYSDGKLKAPPKPCAGNQGTQITVEDLFYNIATRRKALKNPSEEYGKILEVVGRYSVHNAGISFSVKKQGETVADVRTLPNASTVDNIRSIFGNAVSRELIEIGCEDKTLAFKMNGYISNANYSVKKCIFLLFINHRLVESTSLRKAIETVYAAYLPKNTHPFLYLSLEISPQNVDVNVHPTKHEVHFLHEESILERVQQHIESKLLGSNSSRMYFTQTLLPGLAGPSGEMVKSTTSLTSSSTSGSSDKVYAHQMVRTDSREQKLDAFLQPLSKPLSSQPQAIVTEDKTDISSGRARQQDEEMLELPAPAEVAAKNQSLEGDTTKGTSEMSEKRGPTSSNPRKRHREDSDVEMVEDDSRKEMTAACTPRRRIINLTSVLSLQEEINEQGHEVLREMLHNHSFVGCVNPQWALAQHQTKLYLLNTTKLSEELFYQILIYDFANFGVLRLSEPAPLFDLAMLALDSPESGWTEEDGPKEGLAEYIVEFLKKKAEMLADYFSLEIDEEGNLIGLPLLIDNYVPPLEGLPIFILRLATEVNWDEEKECFESLSKECAMFYSIRKQYISEESTLSGQQSEVPGSIPNSWKWTVEHIVYKALRSHILPPKHFTEDGNILQLANLPDLYKVFERC
# partner: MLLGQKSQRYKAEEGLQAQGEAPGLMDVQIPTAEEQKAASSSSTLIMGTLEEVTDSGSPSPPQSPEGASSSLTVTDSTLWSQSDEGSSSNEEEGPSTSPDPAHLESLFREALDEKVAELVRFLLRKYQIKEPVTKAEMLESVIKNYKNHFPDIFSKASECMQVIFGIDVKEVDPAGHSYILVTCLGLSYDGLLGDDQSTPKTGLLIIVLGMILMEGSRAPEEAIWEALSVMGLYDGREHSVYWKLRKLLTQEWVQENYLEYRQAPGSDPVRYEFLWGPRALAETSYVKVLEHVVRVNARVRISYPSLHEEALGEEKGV
# B7: U4/U6 small nuclear ribonucleoprotein Prp31 (Homo sapiens), Q8WWY3 (parent)
# chain: B5 chain
# partner: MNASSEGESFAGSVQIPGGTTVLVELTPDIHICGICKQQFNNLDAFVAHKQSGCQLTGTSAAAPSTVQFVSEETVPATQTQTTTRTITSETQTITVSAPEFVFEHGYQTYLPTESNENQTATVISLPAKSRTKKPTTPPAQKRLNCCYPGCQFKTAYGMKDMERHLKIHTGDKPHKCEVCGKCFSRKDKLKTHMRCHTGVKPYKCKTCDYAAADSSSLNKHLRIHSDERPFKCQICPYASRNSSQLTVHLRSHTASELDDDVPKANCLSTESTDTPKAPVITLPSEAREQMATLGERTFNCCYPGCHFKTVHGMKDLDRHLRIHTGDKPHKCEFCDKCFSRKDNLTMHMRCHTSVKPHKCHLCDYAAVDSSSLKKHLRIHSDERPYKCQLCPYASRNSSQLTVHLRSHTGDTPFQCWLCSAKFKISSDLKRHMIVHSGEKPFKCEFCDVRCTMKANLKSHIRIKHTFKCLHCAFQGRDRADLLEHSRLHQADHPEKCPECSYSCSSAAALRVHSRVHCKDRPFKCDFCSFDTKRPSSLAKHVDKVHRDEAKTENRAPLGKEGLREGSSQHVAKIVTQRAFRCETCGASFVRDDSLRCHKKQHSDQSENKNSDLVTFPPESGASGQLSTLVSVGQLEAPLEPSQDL
# B8: Tyrosine-protein kinase BTK (Homo sapiens), Q06187 (parent)
# chain: MAAVILESIFLKRSQQKKKTSPLNFKKRLFLLTVHKLSYYEYDFERGRRGSKKGSIDVEKITCVETVVPEKNPPPERQIPRRGEESSEMEQISIIERFPYPFQVVYDEGPLYVFSPTEELRKRWIHQLKNVIRYNSDLVQKYHPCFWIDGQYLCCSQTAKNAMGCQILENRNGSLKPGSSHRKTKKPLPPTPEEDQILKKPLPPEPAAAPVSTSELKKVVALYDYMPMNANDLQLRKGDEYFILEESNLPWWRARDKNGQEGYIPSNYVTEAEDSIEMYEWYSKHMTRSQAEQLLKQEGKEGGFIVRDSSKAGKYTVSVFAKSTGDPQGVIRHYVVCSTPQSQYYLAEKHLFSTIPELINYHQHNSAGLISRLKYPVSQQNKNAPSTAGLGYGSWEIDPKDLTFLKELGTGQFGVVKYGKWRGQYDVAIKMIKEGSMSEDEFIEEAKVMMNLSHEKLVQLYGVCTKQRPIFIITEYMANGCLLNYLREMRHRFQTQQLLEMCKDVCEAMEYLESKQFLHRDLAARNCLVNDQGVVKVSDFGLSRYVLDDEYTSSVGSKFPVRWSPPEVLMYSKFSSKSDIWAFGVLMWEIYSLGKMPYERFTNSETAEHIAQGLRLYRPHLASEKVYTIMYSCWHEKADERPTFKILLSNILDVMDEES
# B9: Three-prime repair exonuclease 1 (Homo sapiens), Q9NSU2-1 (parent)
# chain: MGPGARRQGRIVQGRPEMCFCPPPTPLPPLRILTLGTHTPTPCSSPGSAAGTYPTMGSQALPPGPMQTLIFFDMEATGLPFSQPKVTELCLLAVHRCALESPPTSQGPPPTVPPPPRVVDKLSLCVAPGKACSPAASEITGLSTAVLAAHGRQCFDDNLANLLLAFLRRQPQPWCLVAHNGDRYDFPLLQAELAMLGLTSALDGAFCVDSITALKALERASSPSEHGPRKSYSLGSIYTRLYGQSPPDSHTAEGDVLALLSICQWRPQALLRWVDAHARPFGTIRPMYGVTASARTKPRPSAVTTTAHLATTRNTSPSLGESRGTKDLPPVKDPGALSREGLLAPLGLLAILTLAVATLYGLSLATPGE
# partner: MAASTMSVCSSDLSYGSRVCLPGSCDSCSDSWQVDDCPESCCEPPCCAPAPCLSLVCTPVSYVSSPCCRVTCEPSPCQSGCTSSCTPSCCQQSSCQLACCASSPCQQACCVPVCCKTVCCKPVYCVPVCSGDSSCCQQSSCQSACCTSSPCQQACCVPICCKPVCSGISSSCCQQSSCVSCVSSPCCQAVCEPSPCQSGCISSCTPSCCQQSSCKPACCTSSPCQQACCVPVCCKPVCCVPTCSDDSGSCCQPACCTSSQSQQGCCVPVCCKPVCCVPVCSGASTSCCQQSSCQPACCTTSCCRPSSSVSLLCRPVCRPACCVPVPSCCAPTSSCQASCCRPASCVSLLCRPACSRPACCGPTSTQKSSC
# Variants of: B1
# Conditions: with shlb2_human SH3GLB2, Q9NR46
row,Variant,effect of a mutation on the interaction
1,T508R,with no effect
2,M448T,with no effect
3,R159W,with no effect

# Variants of: B2
# Conditions: with AGTRAP
row,Variant,effect of a mutation on the interaction
1,T154S,with no effect
2,R93W,with no effect
3,P21S,with no effect
4,D150N,with no effect

# Variants of: B3
# Conditions: with stx4_human STX4, Q12846
# Chain of stx4_human STX4, Q12846 (Q12846 whole entry): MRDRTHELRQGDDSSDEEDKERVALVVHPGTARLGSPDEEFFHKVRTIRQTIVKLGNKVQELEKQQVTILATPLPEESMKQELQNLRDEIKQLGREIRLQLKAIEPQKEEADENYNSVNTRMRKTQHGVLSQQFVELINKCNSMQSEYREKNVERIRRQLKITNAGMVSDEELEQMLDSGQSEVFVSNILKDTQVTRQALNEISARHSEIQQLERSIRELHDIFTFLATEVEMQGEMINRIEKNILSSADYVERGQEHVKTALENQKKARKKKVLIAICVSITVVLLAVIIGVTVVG
row,Variant,effect of a mutation on the interaction
1,R226H,with no effect

# Variants of: B4
# Conditions: with ima7_human KPNA6, O60684
row,Variant,effect of a mutation on the interaction
1,S113A,with no effect
2,A114S,with no effect

# Variants of: B4
# Conditions: with meox2_human MEOX2, P50222
# Target sequence in this assay (P50222 whole entry): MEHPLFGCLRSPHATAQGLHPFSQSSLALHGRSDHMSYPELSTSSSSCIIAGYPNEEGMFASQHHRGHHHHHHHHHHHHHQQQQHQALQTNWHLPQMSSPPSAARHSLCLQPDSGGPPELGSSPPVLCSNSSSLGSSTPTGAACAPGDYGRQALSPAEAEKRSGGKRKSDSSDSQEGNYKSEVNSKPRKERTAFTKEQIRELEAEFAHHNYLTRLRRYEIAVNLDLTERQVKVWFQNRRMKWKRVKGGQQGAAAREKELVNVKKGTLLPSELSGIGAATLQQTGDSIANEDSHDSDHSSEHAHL
row,Variant,effect of a mutation on the interaction
1,S113A,with no effect
2,A114S,with no effect

# Variants of: B5
# Conditions: with C1QTNF1, Q9BXJ1-2
row,Variant,effect of a mutation on the interaction
1,L107V,with no effect

# Variants of: B6
# Conditions: with maga8_human MAGEA8, P43361
row,Variant,effect of a mutation on the interaction
1,S44F,disrupting interaction strength
2,G244D,with no effect
3,R472I,with no effect

# Variants of: B7
# Conditions: with zf64b_human ZFP64, Q9NTW7
row,Variant,effect of a mutation on the interaction
1,L107V,with no effect

# Variants of: B8
# Conditions: with meox2_human MEOX2, P50222
# Target sequence in this assay (P50222 whole entry): as above
row,Variant,effect of a mutation on the interaction
1,P565L,disrupting interaction strength

# Variants of: B9
# Conditions: with kr107_human KRTAP10-7, P60409
row,Variant,effect of a mutation on the interaction
1,G361A,with no effect
2,A213V,with no effect
